Test results: patent publication US20240116985A1 (published 2024)
Starred links: 1 amine or outer side, 2 acyl side, 3 side chain; linkers in the order of their positions; H or OH if unused. Positions of bridges follow the written chain, without caps; N, C: chain ends. Non-standard residues stand in square brackets, D forms with d. Primed or numbered codes have the meaning given here. No end group written: not given here. PyrS2″ = (S)-3-amino-1-((pent-4-en-1-yloxy)carbonyl)pyrrolidine-3-carboxylic acid (stapling residue), C=CCCCOC(=O)N1CC[C@@](N[*:1])(C(=O)[*:2])C1; B5(16) = 2-amino-2-(pent-4-en-1-yl)hept-6-enoic acid = 2,2-bis(4-pentenyl)glycine (stitching residue), C=CCCCC(CCCC=C)(N[*:1])C(=O)[*:2]; B5(4) = 2,2-bis(4-pentenyl)glycine = 2-amino-2-(pent-4-en-1-yl)hept-6-enoic acid (stitching residue), C=CCCCC(CCCC=C)(N[*:1])C(=O)[*:2]; (Tfp)GA″ = (S)-2-amino-3-((carboxymethyl)(3,3,3-trifluoropropyl)amino)propanoic acid, O=C([C@H](CN(CCC(F)(F)F)CC(=O)[*:3])N[*:1])[*:2]; TfeGA = (S)-2-amino-3-((carboxymethyl)(2,2,2-trifluoroethyl)amino)propanoic acid, O=C([C@H](CN(CC(=O)[*:3])CC(F)(F)F)N[*:1])[*:2]; PyrS2 = (S)-3-amino-1-((pent-4-en-1-yloxy)carbonyl)pyrrolidine-3-carboxylic acid, C=CCCCOC(=O)N1CC[C@@](N[*:1])(C(=O)[*:2])C1; (Et)GA = [Et]GA: (S)-2-amino-3-((carboxymethyl)(ethyl)amino)propanoic acid, CCN(CC(=O)[*:3])C[C@H](N[*:1])C(=O)[*:2]; B5(3) = 2,2-bis(4-pentenyl)glycine (stitching residue), C=CCCCC(CCCC=C)(N[*:1])C(=O)[*:2]; B5 = 2-amino-2-(pent-4-en-1-yl)hept-6-enoic acid, C=CCCCC(CCCC=C)(N[*:1])C(=O)[*:2]; Phe(2-CF3) = N[C@@H](Cc1ccccc1C(F)(F)F)C(=O)O; Phe(2-CONH2) = NC(=O)c1ccccc1C[C@H](N)C(=O)O; Phe(2-Br) = N[C@@H](Cc1ccccc1Br)C(=O)O; Phe(2-Cl) = N[C@@H](Cc1ccccc1Cl)C(=O)O; Phe(2-OMe) = COc1ccccc1C[C@H](N)C(=O)O; Phe(2-F) = N[C@@H](Cc1ccccc1F)C(=O)O; Phe(2-Me) = Cc1ccccc1C[C@H](N)C(=O)O; Bta = N[C@@H](Cc1csc2ccccc12)C(=O)O; Lys(iPr) = CC(C)NCCCC[C@H](N)C(=O)O; αAllylPro = C=CC[C@@]1(C(=O)O)CCCN1; tBuAla = CC(C)(C)C[C@H](N)C(=O)O; 3Thi = N[C@@H](Cc1ccsc1)C(=O)O; Cha = N[C@@H](CC1CCCCC1)C(=O)O; S8 = C=CCCCCCC[C@](C)(N)C(=O)O; PyrS2(4) = not defined here

T1: B-cat-Halo (UniProt P35222 1-781)
T1 sequence (looked up): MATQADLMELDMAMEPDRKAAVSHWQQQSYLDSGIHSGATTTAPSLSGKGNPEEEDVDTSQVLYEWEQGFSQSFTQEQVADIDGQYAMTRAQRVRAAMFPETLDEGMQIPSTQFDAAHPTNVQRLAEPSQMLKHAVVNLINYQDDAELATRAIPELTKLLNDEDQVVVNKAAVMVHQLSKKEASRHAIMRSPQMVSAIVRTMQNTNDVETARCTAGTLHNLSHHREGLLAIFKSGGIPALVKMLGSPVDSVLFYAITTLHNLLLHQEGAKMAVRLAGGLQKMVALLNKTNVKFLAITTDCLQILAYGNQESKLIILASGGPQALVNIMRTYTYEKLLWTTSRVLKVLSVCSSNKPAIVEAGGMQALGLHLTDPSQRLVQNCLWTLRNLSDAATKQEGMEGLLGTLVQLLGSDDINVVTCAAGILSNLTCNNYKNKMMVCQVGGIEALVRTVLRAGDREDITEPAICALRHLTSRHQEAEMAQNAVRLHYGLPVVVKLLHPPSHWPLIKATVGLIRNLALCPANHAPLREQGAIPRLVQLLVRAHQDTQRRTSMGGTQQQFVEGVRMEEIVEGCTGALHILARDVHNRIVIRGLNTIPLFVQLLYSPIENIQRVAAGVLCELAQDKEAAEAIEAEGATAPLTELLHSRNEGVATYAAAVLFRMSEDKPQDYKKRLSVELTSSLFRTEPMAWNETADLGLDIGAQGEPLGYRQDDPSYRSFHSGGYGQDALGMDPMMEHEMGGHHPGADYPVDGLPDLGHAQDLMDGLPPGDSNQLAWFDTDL

T2: B-cat-Halo (UniProt P35222 1-781)
T2 sequence (looked up): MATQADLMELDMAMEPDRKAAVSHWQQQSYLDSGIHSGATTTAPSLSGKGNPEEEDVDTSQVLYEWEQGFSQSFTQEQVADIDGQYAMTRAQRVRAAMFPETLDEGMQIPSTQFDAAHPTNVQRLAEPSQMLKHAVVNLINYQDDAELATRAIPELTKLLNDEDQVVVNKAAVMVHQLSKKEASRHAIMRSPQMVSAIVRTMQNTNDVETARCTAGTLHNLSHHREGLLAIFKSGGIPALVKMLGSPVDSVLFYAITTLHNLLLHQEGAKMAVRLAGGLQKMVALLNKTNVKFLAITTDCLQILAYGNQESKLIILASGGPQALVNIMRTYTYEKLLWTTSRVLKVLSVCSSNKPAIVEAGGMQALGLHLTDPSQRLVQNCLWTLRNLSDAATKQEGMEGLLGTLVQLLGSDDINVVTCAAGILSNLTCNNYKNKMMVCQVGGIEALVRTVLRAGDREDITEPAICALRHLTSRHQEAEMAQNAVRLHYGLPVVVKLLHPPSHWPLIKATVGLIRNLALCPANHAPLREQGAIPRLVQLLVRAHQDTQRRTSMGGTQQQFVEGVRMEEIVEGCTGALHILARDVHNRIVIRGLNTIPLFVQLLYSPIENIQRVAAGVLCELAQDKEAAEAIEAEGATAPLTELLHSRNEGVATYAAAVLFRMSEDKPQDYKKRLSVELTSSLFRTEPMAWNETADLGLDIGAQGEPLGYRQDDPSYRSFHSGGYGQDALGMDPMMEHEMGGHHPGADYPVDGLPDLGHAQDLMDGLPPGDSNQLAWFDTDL


Molecular target: T1, B-cat-Halo
Assay: cell-based or functional assay

Binder	NanoBRET Abs IC50
Ac-[αAllylPro]D[tBuAla][B5(16)]D[(Me)GA]AAFN[PyrS2(4)][3Thi][Bta]Q-NH2 (staple 1-4, 4-11; not fully specified; printed as Ac-PL3-Asp-Npg-B5-Asp-[Me]GA-Ala-Ala-Phe-Asn-PyrS2-3Thi-BztA-Gln-NH2; reading uncertain) [I-1637]	> 20 µM
Ac-[αAllylPro]D[tBuAla][B5(3)]D[TfeGA]AAFT[PyrS2″][Phe(2-Cl)][Bta][Lys(iPr)]-NH2 (staple 1-4, 4-11) [I-1615]	8 µM
Ac-[αAllylPro]D[tBuAla][B5(3)]D[(Et)GA]AAFN[S8][3Thi][Bta]Q-NH2 (staple 1-4, 4-11; also: earlier eluting staple isomer) [I-1627]	> 20 µM
Ac-[αAllylPro]D[tBuAla][B5(3)]D[(Tfp)GA″]AAFL[PyrS2][3Thi][Bta]Q-NH2 (staple 1-4, 4-11) [I-1633]	5.2 µM

Molecular target: T2, B-cat-Halo
Assay: cell-based or functional assay

Binder	NanoBRET Abs IC50
Ac-[αAllylPro]D[tBuAla][B5(4)]DDAAFN[PyrS2″][Phe(2-Br)][Bta]Q-NH2 (staple 1-4, 4-11) [I-1323]	11.7 µM
Ac-[αAllylPro]D[tBuAla][B5(4)]DDAAFF[PyrS2″][Phe(2-F)][Bta]Q-NH2 (staple 1-4, 4-11) [I-1322]	9.1 µM
Ac-[αAllylPro]D[tBuAla][B5(4)]DDAAFN[PyrS2″][Phe(2-CF3)][Bta]Q-NH2 (staple 1-4, 4-11) [I-1317]	9.7 µM
Ac-[αAllylPro]D[tBuAla][B5(4)]DDAAFN[PyrS2″][Phe(2-F)][Bta]Q-NH2 (staple 1-4, 4-11) [I-1320]	26.2 µM
[αAllylPro]D[tBuAla][B5]DDAAFN[PyrS2][Cha][Bta]Q-NH2 (staple 1-4, 4-11) [I-1329]	35 µM
[αAllylPro]D[tBuAla][B5(4)]DDAAFF[PyrS2″][Phe(2-Br)][Bta]Q-NH2 (staple 1-4, 4-11) [I-1325]	5.7 µM
[αAllylPro]D[tBuAla][B5(4)]DDAAFF[PyrS2″][Phe(2-OMe)][Bta]Q-NH2 (staple 1-4, 4-11) [I-1328]	5.4 µM
Ac-[αAllylPro]D[tBuAla][B5(4)]DDAAFL[PyrS2″][Phe(2-F)][Bta]Q-NH2 (staple 1-4, 4-11) [I-1321]	10.9 µM
[αAllylPro]D[tBuAla][B5(4)]DDAAFF[PyrS2″][Phe(2-Me)][Bta]Q-NH2 (staple 1-4, 4-11) [I-1326]	6.2 µM
Ac-[αAllylPro]D[tBuAla][B5(4)]DDAAFF[PyrS2″][2cbmF][Bta]Q-NH2 (staple 1-4, 4-11) [I-1316]	6.8 µM
Ac-[αAllylPro]D[tBuAla][B5(4)]DDAAFL[PyrS2″][2cbmF][Bta]Q-NH2 (staple 1-4, 4-11) [I-1315]	7.2 µM
[αAllylPro]D[tBuAla][B5(4)]DDAAFL[PyrS2″][Phe(2-OMe)][Bta]Q-NH2 (staple 1-4, 4-11) [I-1327]	7 µM
Ac-[αAllylPro]D[tBuAla][B5(4)]DDAAFN[PyrS2″][Phe(2-CONH2)][Bta]Q-NH2 (staple 1-4, 4-11) [I-1314]	> 20 µM
[αAllylPro]D[tBuAla][B5(4)]DDAAFL[PyrS2″][Phe(2-Br)][Bta]Q-NH2 (staple 1-4, 4-11) [I-1324]	5.8 µM
